Assay results reported in the DeepSol protein solubility set.

Test: soluble on expression in E. coli; label from the status in PepcDB or PDB records

Sequence | soluble on expression in E. coli
MGSDKIHHHHHHMNRPLFDLDLLRALVMVADCGSFTTASARLHSTQSTVSQKVRRLEEIAGHRLLDRGTRDVRPTDAGVTVLSYARRMIALNDEMLEALSGATVALTIRLGVPDDFAAGRTTHALAAFKRDHPQVKLEVTCGLSRDICAAYDRGELDLVLIKQRRDSREAVVRWPEKLRWIDSARHPTIELDPVPLVVFPPRGLYRDDMIKAIEERGRRWRISFTTSSLSGIQAAVADGLGISVLPARAVTDDHVVLTDEHGGFAPIGNMDIAILHRPTADPMVSELTKALAAMLEHEPE | not soluble
MGSDKIHHHHHHMNSKYNFQYFQGSSLSDLFAQDITDGSYGFILNYPATASWAAYPNRKKYFIQDGSSEASKTSFDKICQKEPWKNLAVLGDRIPGIVIIPPPKPLLEYWQEHFGFKHSNIEMMDCSTYLDDLSHSDRFDKLITLFPFDCLKPEKHAVTSDTHYRLLSKVTLEEIGVQCPKYKSYNLHQVNIVDIQLPQFPYLIKTSHGLSGEGTYIIKNPSDLNYCLEEINKYLDIKLLDTIIVSEFIKNEVQNYCVQFYVNKAGEITLIGTTGQLVTPEGNYLGGVIDYGKTDMSKFFEMIANVGDYAHKQGYFGVIGFDVLENQDGQFYAIDANFRVNGSTPLCLQRHTLLRLGKEVAKYSSSYRMEGTLESILITLKPELDRKDLIILSALEKAKYGKIYTELYAIVTGETIAQMQYIEQQLQTKGLQLLS | not soluble
MGSDKIHHHHHHMNSLEQLRQAEQALLEIFSGIDAQVKQNLKRVLEAFRNQRVGAHHFAGVSGYGHDDLGRETLDKVFAEVMGAEAAAVRVQFVSGTHAIACALFGVLRPGDEMLAVVGSPYDTLEEVIGLRGQGQGSLIEFGIKYRQLELTSQGSIDWQTLSTSITDNTRLVLIQRSCGYSWRPSLSIADIEKVVNLVKQQNPDTVCFVDNCYGEFIETQEPTHVGADLMAGSLIKNPGGTIVTAGGYVAGRADLVEAAACRLTAPGIGSYGGATFDQNRLLFQGLFLSPQMVGEAMKGTHLTGYVFDKLGYPVNPAPLAPRGDVIQAIKLGSGKKLIAFCKAVQQNSPVGSYLDPVPDDMPGYESQVVMAGGTFIEGSTLEFSADGPLREPYVVYCQGGTHWSHVAIALEAAIDAVGEA | not soluble
MGSDKIHHHHHHMNSMDATAAHHTSPNATLVYDIRHSRYLNITGRCTLRCGFCPKQQGSRQIHQYQLALDKQPGVDDLLPLLGDVDTFDEYVFCGYGEPTLNLPTLLGVARAIKSQGGRIRVNTDGLGNLFHKRNILPELADCVDALSVSLNAQDEFTYLKHCQPRLKGSWQAVNDFIRMAPAYIKRVEVSAIDGLPGVDIPACRALVEAAGCTFKHRKLDIMG | not soluble
MGSDKIHHHHHHMNTDLTLVIMAAGLGSRFGGDKQLASLGPSGEPMLVLSILSAIRSGFQRAVLVIRPELEAELTGILTQFLPANFEYHFCYQSLSDLPQDAKLADLSHRLKPWGTAHALWCARDWVKGPMAVINADDFYGDSAFASLAKGLTARPNDWMMVAYPIELTLSEHGGVNRGLCQVAQGQLRSVAEWLNIQAQDDGFVGEGPNGLAKLPLQSLVSMTCWGFSPSIFNVIKQQLTAFIEQQGQLPKSECYLPAVVQAAIEQGVPVYVDVASEPWLGVTYPQDTVWVKQKLMELLGDKTH | not soluble
MGSDKIHHHHHHMNTKDLAYFDELISQKNFSKVAKTFGVSQPTVTTAIKRLESEFGAPLVIRDRVKNTLHVTASGAQLAEHAKIVLHELRLAHQEIDNLSQNRLILGLPPIIENHYFPKIGARLAAEGLLAGLETIEGGSIWLRNAVRDGRVDMTLLGSVEPLAYQTLIAEEFDRQPFCIYVSKQHPLAQRKRVYFNELRREKFVFFNSNFIHNTAFNKLTRRNHFRPNIVFRSNDTHVLMKLIGENVGIGFFTKIVDHYRTDVVRLDLMDIEPPEFITSIVYRTTHILTPVQQQLLTILHETLAVDTDQTD | not soluble
MGSDKIHHHHHHMNWESTPVLMLTPFHHMQRGNTLTTLRLQTALRQRGFTVDLLSLEEKGWRDSLREYLINGKYSLVHGFNARYFGGVLTEFPELRNLPLILTTTGSDLNYDLKNSGRDLVLAAFAAAEKIIVFHDYFQKLIGDAYPEYCSKLSTIPQGVWLEESPPIKREMIGLAADNIVFALPSGLRPVKDIELAIDGLQRVYKDFPELRLLIIGPVIDRDYGQKIKQRVSELNWVFYLGEVLHSDMGNYLSLADVILNTSQAEGQPQGLLEGMSQNKPAILTAVPGNLDIIEEGRQGYYVRNQEELAVAARKMLSSAESRQRMGWEAGKLVKEKFSLAREIQSYAELYRQVLSP | not soluble
MGSDKIHHHHHHMNWMDQPDLYSRYKIFLEILQSKEHISLFDPRLKRYTDILIDLEKPFTTWSTPNHIILVHKTLCLRHFPNKYESSAKRPVLILPPQAGHHSNLADYSPAQSLVRVFHRYGYDVYVTQWLSATTEYKDLGIEDYIRLTDEAVEEVRKRTGVYKIHLVGQCQGGWQASIYTSLFPDKISTLVSAAAPIDVNAKPSPIVEYAQKLSIDVFRFMVNSGGGVMPGKFILQGFKSMQPEEHYVRKYFRLWQMIKEGDEDGVKRFIHFENWYQYTQNLPGRFYLEIVKNIFKENNLTKPGSFQLDGRPVDLRNISCPVIIMAGKKDHITPPEQAFALKNYISTPAADVIEILTEGGHIGTLMGTESLREDWTAVNEVLKLAI | not soluble
MGSDKIHHHHHHMNYQQLFRNRLAVLATMHQKEKVIAPLLEQELGIKVIVPPDFNTDIFGTFTREVKRPGTQIAAARLKAEKVLELTGENLAIASEGSFAPHPLVPYIYSNREIIILLDKINDIEIIGEEFSTYTNFNHQAVESLDEAYTFAKKVGFPEHGLVVWFENSEKKCHEIIKGITQETALIEAINFGLEKSPNSKINLETDMRAIYNPTRMKNIEKATHNLLQKISSCCPQCHTPGFETTERIKGLPCELCHTPTTLTLRAIYQCKKCGFRQDKLFPNGIEFADPSQCVYCNP | not soluble
MGSDKIHHHHHHMPARIQPTARQVRLGAELRKLRDAAGLTSRQAAALLGTNPAQMSQIEAGNAGVSGERVRKLGVQYASADMELVDALVEMATDRTRGWWEEYRDVLPPVFQDLAELEHHATFMRVVGTVHVPGLLQTQEYARAVFAYVVPELPVDELDLRVRHRMRRKLVLSERTVPYEAVIHESVLRTRVADRRVAVAQLDELLSQSERPNVSLRVIPFGVDGFAGAGAMMLYAGGRVPALDTVQRDAPYGSVFLDASAQLLAMRTLFRRVESAALPPAKSRDYIHRLTKEL | not soluble
MGSDKIHHHHHHMPEAAFTHERRCSSLCAFVSSSQSPTTNAETIREARSSRCDKTSMTPSFKELKSRFGLDEINTTDAYIIEALIIMAAISLMMSRVIVDELRSLEARQREVEAAADADESASRLPRRRCSLAVERHAHLIQLYLMVELGYELPDLDELLLWASRNPNPHRDRLREQVERGEFGFGRH | not soluble
MGSDKIHHHHHHMPEHDVRLQQLTVWLDEQLNDLFRDNAWGEVPAGSLTAASSDASFRRYFRWQGAGHSFVIMDAPPPQENCRPFVAIDHLLASADVHVPLIHAQDLERGFLLLGDLGTQTYLDIINADNADGLFADAIDALLKFQRLPMDAPLPSYDDALLRREVELFPEWYVGRELGLTFTDAQKATWQRVSQLLIDSALAQPKVLVHRDYMPRNLMQSTPNPGVLDFQDAVYGPVTYDITCLFKDAFVSWPQARVEGWLGDYWQQAQAAGIPVHAEFEAFHRASDLMGVQRHLKVIGIFARICHRDGKPRYLGDVPRFFAYINEVIGRRPELAELGELIAELQAGARA | not soluble
MGSDKIHHHHHHMPIIATAAWSIPKKVADRFAQGGSSLTRYASVFDGVEVNSTFYRRHKTSTFATWEHSVPDAFRFAVKIPKEITHTSAMRDIAEPFDTFLEDIAPLGEKRGPLLCQLPPSLTFDVEVLQTAFKTMRDADDGPIVIEVRHKSWASAEALDLLKTYRIDRVLADPAPVWPVEDFDTPPKYVRLHGKPKIYYSSYTDDEIKSFSALLAPDSWCVFDNTASGAAIENALNMAEIR | not soluble
MGSDKIHHHHHHMPKTISEQNLLRLIDTLVNEGKRVIGPKAAGTMTLYEPLATGEELNLGELPRRSAKETFFPLCETILTYERDREGVRVTDVDPGAIPETVLVAARPCDVAAAPVLDSVFSWDYQDEFYLSRRGKTTIIGLACARADDACFCTAVGLSTNDTKGSDLFLTTLTGGGYRCDVITDKGMALLAAHGGLFAEGDGTPAPLAEPALGKLDLEKIKQWLDNHFEDPLWEEIAERCAGCGACAFLCPACHCFDINDEGGEKKGARRKSWDACGFGKFTNHASGHNPRDVQPQRYRNRIMHKFKYYVDKFDQRLCTGCGRCIRACPVGIDIAEILSAIGTRDQGPGTGKD | not soluble
MGSDKIHHHHHHMPLFTEAPKSLCILRLSAVGDVCHALAVVQHIQEYYPQTEMTWIVGKTEMGLLSSIPNITLIPYDKKTGWKGVLSLWKQLKNKQFDALLNMQTAFRASILSLGIKAKFKIGFGEKRSREGQWLFVNRRIRDPFSPHVLDGFMAFAEYIGVPKAEPKWELAISQDDYKFADQFIDFSRKNLLISPCSSKAEKDWLIEGYAEVANIAHQHNINVIFCSSPAKRELEIVEKITALCHFTPTNIAGKTNLKQLTALISKVDLVLSPDSGPAHIATTQGTPVIGLYAYHNPLRTAPYNNLDNVVSVYEENAQKEFGKPSSELPWATKLKGKNLMTEIQVEPVIGQMKKLGLF | not soluble
MGSDKIHHHHHHMPLQQESARQERKPVILMSMGQQDRNGHAYQVMTHKYMQPVVDISDCIPLLIPTCFGVADIEQYLDMADGVYLSGAASNIDPSLYGQENLTPEKKQDLARDLVDIALIKGAVKRGLPILGICRGMQEMNIAFGGDLYQKVHDEDHLNDHREDPDTPPDVQYGASHSISMVKGSWLHKLLGDTIEVNSLHGQGIKTLGKGLEALALAEDGLVEALHAPYLPQFTLGVQWHPEWKALENPDSIKIFKAFGEACRRRAGSALDLRIDKAS | not soluble
MGSDKIHHHHHHMPNDTHTTQANVDPAEIAKFEAMAQSWWDPNGEFKPLHQLNPLRLNYIDSTAGGIFAKKVLDVGCGGGILSESMAKLGANVDGIDMGEAPLEVARLHALESGVMVNYHKTTAEAHSASHANHYQVVTCMEMLEHVPDPQSVIQACCDMVEPGGFVFFSTINRNMLSYVQAILGAEYLLKLLPIGTHDHSKFIRPSELMAMVDNTDLICKDALGISFNPLTSIFSYTKSLEVNYMIATQKMAD | not soluble
MGSDKIHHHHHHMPPSFLWISSEVDLKVSSNGDCDHVVFLVDSHFNTCTESNYESFKVSCVAGTNTKDPTEFTKIELGHRPAGSTESPYDNSGFSVEFNGVFENSKQIECVLTRSSINREKRSSISTKKISKTKPKTQLHIFCYRICEIETKIQVISGRSIGSCRCRRNNKIIIPKNADLQILQRESESSHCHYREKNHKKLFHENSLPVMKFSVFNYNTQKW | not soluble
MGSDKIHHHHHHMPRGPTKKKTEDTTSQSLESKLWATADKLRGHLDAADYKHVVLGLIFLKYISDRFAQRHEEIIREEAGTYAAEDRDEYTAEGVFWVPASSRWAVVQTAAKQPDIGKRIDGAMTDIERENPHLKNILPKGYARPTLDQRRLGELVDLIGTIGLGTAEHQARDTLGRVYEYFLGRFASAEGKRGGEFYTPASVVRTLVTMLAPYKGRIYDPCCGSGGMFVQSEKFIEAHGGKVGDISVYGEESNPNTWKLALMNLAIRGIEADLGPEAADTFHKDLHPDLRADYILANPPFNISDWGGDLLRDDKRWQYGIPPTGNANFAWVQHMVHHLAPYGIAGFVLANGSMSSNTSGEGEIRKNLIEADLVDCMVAMPGQLFYSTQIPVCLWFLAKNRDDGRGMTGKELFERTGEVLFIDARNMGFMADRTHRELTDEDIQKIADTYHNWRGDGDGEYADIPGFCKAASLDDIRKNGHVLTPGRYVGAAAKDDDGEPFEEKMDRLTKELSAQLAEGRRLEDEMLKNFRVLGYEL | not soluble
